Legend:
[1] = biological target: human platelet glycoprotein Ib alpha (GPIb α) on human platelets (human) (UniProt P07359); test: cell-based or functional assay
[2] = biological target: human platelet glycoprotein Ib alpha (GPIb α) on human platelets (human) (UniProt P07359); test: blocking in a parallel-plate flow chamber: human whole blood treated with mAb AP-1 perfused over surface-immobilized murine plasma VWF R1326H (the blocked ligand), shear rate 1,600 s^-1; about 4,600 without antibody
[3] = biological target: human platelet glycoprotein Ib alpha (GPIb α) on human platelets (human) (UniProt P07359); test: blocking in a parallel-plate flow chamber: human whole blood treated with mAb 6D1 perfused over surface-immobilized murine plasma VWF R1326H (the blocked ligand), shear rate 1,600 s^-1; about 4,600 without antibody
[4] = biological target: human platelet integrin αIIb β3 on human platelets (human) (UniProt P08514); test: cell-based or functional assay
[5] = biological target: murine platelet glycoprotein Ib alpha (GPIb α) on mouse platelets (mouse) (UniProt O35930); test: cell-based or functional assay
[6] = biological target: human platelet glycoprotein Ib alpha (GPIb α) on human platelets (human) (UniProt P07359); test: translocation of human platelets on immobilized plasma VWF in flow
[7] = biological target: human platelet glycoprotein Ib alpha (GPIb α) on human platelets (human) (UniProt P07359); test: human whole blood over immobilized protein, parallel-plate flow chamber, 1600 s^-1

Chain of murine platelet glycoprotein Ib alpha (GPIb α) on mouse platelets (mouse) (O35930 17-734): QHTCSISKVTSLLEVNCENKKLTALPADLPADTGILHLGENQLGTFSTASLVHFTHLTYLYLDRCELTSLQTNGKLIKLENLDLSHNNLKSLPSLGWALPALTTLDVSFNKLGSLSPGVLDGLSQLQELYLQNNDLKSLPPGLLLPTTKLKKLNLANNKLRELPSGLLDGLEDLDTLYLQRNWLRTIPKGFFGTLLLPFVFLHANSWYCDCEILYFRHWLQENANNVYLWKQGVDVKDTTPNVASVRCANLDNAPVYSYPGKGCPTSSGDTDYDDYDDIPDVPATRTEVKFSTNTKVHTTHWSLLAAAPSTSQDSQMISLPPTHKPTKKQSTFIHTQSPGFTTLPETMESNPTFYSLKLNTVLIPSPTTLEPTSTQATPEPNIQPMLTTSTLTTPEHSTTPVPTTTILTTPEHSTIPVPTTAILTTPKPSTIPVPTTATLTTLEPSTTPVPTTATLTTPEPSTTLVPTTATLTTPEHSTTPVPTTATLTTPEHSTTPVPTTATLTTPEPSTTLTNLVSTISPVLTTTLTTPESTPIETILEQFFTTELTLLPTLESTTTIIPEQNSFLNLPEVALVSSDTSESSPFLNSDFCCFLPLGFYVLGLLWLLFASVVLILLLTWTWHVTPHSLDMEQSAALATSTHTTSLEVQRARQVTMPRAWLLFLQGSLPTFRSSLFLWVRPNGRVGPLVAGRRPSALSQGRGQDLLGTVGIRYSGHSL

## GPIb α function-blocking antibody AP-1
[1]
  human platelet thrombus size in VWF^1326R>H mice after pre-treatment with the mAb: 198 µm^2
[2]
  Human platelet accumulation/mm2: 0 /mm2

## function-blocking monoclonal antibody 6D1 (anti-human GPIb α)
[1]
  human platelet thrombus size in VWF^1326R>H mice after pre-treatment with the mAb: 265 µm^2
[3]
  Human platelet accumulation/mm2: 0 /mm2

## function-blocking monoclonal antibody 7E3 (anti-human αIIb β3)
[4]
  human platelet thrombus size in VWF^1326R>H mice after pre-treatment with the mAb: 529 µm^2

## murine plasma VWF containing the 1326R>H mutation (VWF^1326R>H), Q8CIZ8 764-2813
[1]
  average thrombus size, human platelets in homozygous VWF^1326R>H mice: 8950 µm^2
  share of human cells in thrombi, laser injury in homozygous VWF^1326R>H mice: 91.7%
  tail bleeding time of VWF^1326R>H mice infused with human platelets: 182 s
[5]
  increase in tail bleeding time, heterozygous animals versus WT: 1.9 fold
  reduction in thrombi formed on collagen, whole blood of knock-in mice, 1600 s^-1: 70%
  reduction in thrombus formation on surface-immobilized collagen, whole blood of homozygous mutant mice (FIG. 26): 80%
[6]
  translocation velocity of human platelets: 3.5 µm/sec

## murine plasma von Willebrand factor (VWF), wild type, Q8CIZ8 764-2813
[1]
  share of human platelets in total thrombus area, WT mice: 5.7%
[5]
  ristocetin-induced platelet aggregation (RIPA), murine PRP, 2.5 mg/ml ristocetin: 30%
[7]
  platelet deposition relative to same-species control: 10%

From patent publication US20130347134A1, “TRANSGENIC VON WILLEBRAND FACTOR ANIMALS AND USES THEREOF” (priority 2012, published 2013)
